Consider 5 molecules from patent US20130156764A1, “NEUTRALIZATION OF FLT3 LIGAND AS A LEUKEMIA THERAPY” (The Johns Hopkins University, priority 2010, published 2013).

Experiment [1] relates to FLT3 autophosphorylation in Molm14 cells (FLT3/ITD). Nature of the experiment: Inhibition of FLT3 autophosphorylation in Molm14 cells in presence of FL (immunoblot). It counts as cell-based. The conditions noted are these: for effect of FL on dose response curve for inhibition of FLT3 autophosphorylation: exogenous FL, in medium and plasma; for effect of addition of FL on inhibition at the highest doses used: medium and plasma. As for the experimental part:
(§1) Leukemia cells were washed in PBS, then lysed by re-suspending them in lysis buffer (20 mM Tris pH 7.4, 100 mM NaCl, 1% Igepal (Sigma, St. Louis, Mo.), 1 mM EDTA, 2 mM NaV04, plus Complete protease inhibitor (Roche)) for 30 minutes while rocking. The extract was clarified by centrifugation at 14,000 rpm and the supernatant was assayed for protein (Bio-Rad, Richmond, Calif.). A 50 μg aliquot was removed as whole-cell lysate for analysis of STAT5, and the remainder was used for immunoprecipitation with anti-FLT3 antibody. Anti-FLT3 antibody (SI8; Santa Cruz Biotechnology, Santa Cruz, Calif.) was added to the extract for overnight incubation, then protein A sepharose (Upstate Biotechnology, Lake Placid, N.Y.) was added for 2 additional hours. Separate SDS-PAGE (sodium dodecylsulfate polyacrylamide electrophoresis) gels for whole-cell lysate and immunoprecipitates were run in parallel, After transfer to Immobilon membranes (Millipore, Bedford, Mass.), immunoblotting was performed with antiphosphotyrosine antibody (4G10; Upstate Biotechnology, Lake Placid, N.Y.) to detect phosphorylated FLT3, and then stripped and re-probed with anti-FLT3 antibody to measure total FLT3. Proteins were visualized using chemiluminescence (ECL; GE Healthcare, Piscataway, N.J.), exposed on Kodak BioMax XAR Film, developed, and scanned using a BioRad GS800 densitometer.
Background: A western blot detects proteins with antibodies after separation by electrophoresis.

In experiment [2] the test system is FLT3. The experiment can be described thus: Plasma inhibitory activity (PIA) assay for FLT3 with patient plasma on TF/ITD cells. It counts as cell-based, human. The conditions noted are these: for mean PIA value: AML15 trial. As for the experimental part: as §1
Frozen plasma samples were thawed and clarified by centrifugation at 14,000 rpm for 2 minutes. All assays described herein were performed within 12 months of collection. For each time point, 2×10^6 TF/ITD were incubated with 1 ml plasma at 37° C. for 1 hour. The cells were washed twice with ice-cold PBS then lysed. After immunoblotting for phosphorylated FLT3 as described above, densitometric analysis was performed on the bands and the PIA for a given plasma sample was calculated by expressing the density of its corresponding band as a percentage of the density of the baseline band (which was arbitrarily set at 100%).

The subject of experiment [3] is FLT3. The conditions noted are these: previous monotherapy trials; cited from earlier work.
Experiment [4] concerns the target T1, FLT3/ITD mutant (addition of 6 amino acids, RTDFRE, after amino acid No. 596 of full-length FLT3) (human) (UniProt P36888).
T1 sequence: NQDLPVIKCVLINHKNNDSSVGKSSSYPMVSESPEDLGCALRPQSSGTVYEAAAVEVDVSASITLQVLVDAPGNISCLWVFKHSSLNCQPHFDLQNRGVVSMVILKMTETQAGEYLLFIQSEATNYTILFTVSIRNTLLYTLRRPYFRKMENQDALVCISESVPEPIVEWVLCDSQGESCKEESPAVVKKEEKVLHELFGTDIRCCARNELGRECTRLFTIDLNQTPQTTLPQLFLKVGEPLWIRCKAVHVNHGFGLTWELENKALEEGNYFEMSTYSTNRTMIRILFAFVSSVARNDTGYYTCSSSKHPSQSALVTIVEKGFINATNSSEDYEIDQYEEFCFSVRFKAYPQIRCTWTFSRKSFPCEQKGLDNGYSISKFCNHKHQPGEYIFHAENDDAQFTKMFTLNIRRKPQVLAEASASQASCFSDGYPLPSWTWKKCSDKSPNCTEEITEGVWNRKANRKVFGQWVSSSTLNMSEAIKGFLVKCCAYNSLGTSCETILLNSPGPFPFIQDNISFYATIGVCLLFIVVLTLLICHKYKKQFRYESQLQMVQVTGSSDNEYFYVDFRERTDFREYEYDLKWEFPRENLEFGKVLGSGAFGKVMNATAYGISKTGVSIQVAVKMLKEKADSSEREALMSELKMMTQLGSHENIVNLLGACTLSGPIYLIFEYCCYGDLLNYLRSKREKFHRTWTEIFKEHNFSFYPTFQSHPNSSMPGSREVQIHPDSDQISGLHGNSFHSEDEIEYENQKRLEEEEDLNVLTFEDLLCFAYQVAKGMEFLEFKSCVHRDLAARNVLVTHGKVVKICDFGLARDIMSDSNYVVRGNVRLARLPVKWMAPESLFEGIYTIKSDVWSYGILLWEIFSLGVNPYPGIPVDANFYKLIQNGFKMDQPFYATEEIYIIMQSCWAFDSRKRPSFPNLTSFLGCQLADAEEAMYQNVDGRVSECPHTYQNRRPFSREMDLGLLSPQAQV
Nature of the experiment: cell-based or functional assay.

Experiment [5] deals with T2, FLT3/TKD mutant (D835, Aspartic acid to Tyrosine change, in full-length FLT3) (human) (UniProt P36888).
T2 sequence: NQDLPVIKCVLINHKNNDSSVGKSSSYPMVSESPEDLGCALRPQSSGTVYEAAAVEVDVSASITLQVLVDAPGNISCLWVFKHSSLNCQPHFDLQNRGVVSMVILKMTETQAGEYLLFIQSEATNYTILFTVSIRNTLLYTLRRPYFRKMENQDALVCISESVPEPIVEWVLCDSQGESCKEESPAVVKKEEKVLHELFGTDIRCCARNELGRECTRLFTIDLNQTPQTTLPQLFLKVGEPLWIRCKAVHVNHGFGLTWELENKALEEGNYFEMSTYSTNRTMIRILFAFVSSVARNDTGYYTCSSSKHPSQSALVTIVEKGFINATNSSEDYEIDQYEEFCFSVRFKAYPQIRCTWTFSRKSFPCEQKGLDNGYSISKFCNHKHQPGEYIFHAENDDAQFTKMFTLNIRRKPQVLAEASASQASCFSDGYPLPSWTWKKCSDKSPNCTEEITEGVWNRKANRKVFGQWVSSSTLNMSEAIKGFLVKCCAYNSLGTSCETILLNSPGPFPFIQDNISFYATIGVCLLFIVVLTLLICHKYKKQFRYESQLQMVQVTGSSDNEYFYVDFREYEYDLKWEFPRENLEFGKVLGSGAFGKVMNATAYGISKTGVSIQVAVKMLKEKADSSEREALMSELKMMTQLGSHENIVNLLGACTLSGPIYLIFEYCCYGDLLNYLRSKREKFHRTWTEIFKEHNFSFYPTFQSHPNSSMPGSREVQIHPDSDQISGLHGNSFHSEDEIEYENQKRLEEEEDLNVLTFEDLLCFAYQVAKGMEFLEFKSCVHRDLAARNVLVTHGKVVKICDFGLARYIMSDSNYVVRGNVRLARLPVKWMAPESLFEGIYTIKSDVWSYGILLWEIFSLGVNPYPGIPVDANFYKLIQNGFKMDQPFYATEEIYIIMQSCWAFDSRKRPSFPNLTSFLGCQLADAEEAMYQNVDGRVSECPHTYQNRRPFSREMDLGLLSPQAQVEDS
Nature of the experiment: cell-based or functional assay.

For experiment [6], the target named is T3, wild-type FLT3 (full-length, expressed in FL-/- MEF cells) (human) (UniProt P36888).
T3 sequence: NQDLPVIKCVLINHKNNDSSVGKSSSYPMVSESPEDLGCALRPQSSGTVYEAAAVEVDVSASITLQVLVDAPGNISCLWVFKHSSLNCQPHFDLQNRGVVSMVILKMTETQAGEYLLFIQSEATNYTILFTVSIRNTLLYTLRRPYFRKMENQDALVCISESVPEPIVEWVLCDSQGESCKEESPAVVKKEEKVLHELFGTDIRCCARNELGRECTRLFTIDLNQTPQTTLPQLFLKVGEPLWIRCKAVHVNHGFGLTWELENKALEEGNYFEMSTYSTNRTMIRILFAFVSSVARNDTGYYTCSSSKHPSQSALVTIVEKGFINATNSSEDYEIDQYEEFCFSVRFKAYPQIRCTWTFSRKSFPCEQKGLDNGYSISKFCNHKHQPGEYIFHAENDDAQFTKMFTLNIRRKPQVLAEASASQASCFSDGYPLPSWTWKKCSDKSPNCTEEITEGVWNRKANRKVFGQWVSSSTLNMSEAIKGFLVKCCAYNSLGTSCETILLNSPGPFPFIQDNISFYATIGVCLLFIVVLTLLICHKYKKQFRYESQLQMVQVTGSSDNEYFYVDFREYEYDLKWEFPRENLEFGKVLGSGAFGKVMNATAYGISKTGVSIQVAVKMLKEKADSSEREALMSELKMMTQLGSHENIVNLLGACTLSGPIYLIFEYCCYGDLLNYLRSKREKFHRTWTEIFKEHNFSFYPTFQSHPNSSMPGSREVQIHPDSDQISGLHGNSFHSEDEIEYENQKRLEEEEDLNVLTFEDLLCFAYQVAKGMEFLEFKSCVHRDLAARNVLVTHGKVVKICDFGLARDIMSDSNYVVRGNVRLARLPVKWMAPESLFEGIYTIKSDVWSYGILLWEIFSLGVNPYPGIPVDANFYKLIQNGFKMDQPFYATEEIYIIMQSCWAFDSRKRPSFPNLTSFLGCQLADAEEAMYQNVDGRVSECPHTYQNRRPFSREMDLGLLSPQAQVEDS
Nature of the experiment: cell-based or functional assay.

With `O=C(c1ccc(/C=C/c2n[nH]c3ccccc23)cc1)N1CCNCC1` [KW-2449], in experiment [1], the “effect of FL on dose response curve for inhibition of FLT3 autophosphorylation” value is “upward shift in the dose response curves” and the “effect of addition of FL on inhibition at the highest doses used” value is given as “loss of complete inhibition”.

Take `C[C@]12O[C@H](C[C@]1(O)CO)n1c3ccccc3c3c4c(c5c6ccccc6n2c5c31)CNC4=O` [lestaurtinib, Lestaurtinib]: the “samples below 15% of baseline FLT3 activity” value in experiment [2] (AML15 trial (newly diagnosed AML), Day 15 trough) was “all 18”. Further, the “mean PIA value” in experiment [2] (course 1, 18 samples) was 3 % of baseline; in experiment [2] (courses 2 through 4, 18 samples), 6.8%. In addition, in experiment [2] (Cephalon 204 trial (relapsed AML), Day 15 trough, 78 samples), the “samples achieving target level of inhibition (FLT3 below 15% of baseline)” value worked out at 62%. Further, the “FLT3 autophosphorylation remaining with FL” value in experiment [1] (10 μM in plasma, 3 ng/mL FL) was “significant residual FLT3 autophosphorylation”. Moreover, the “effect of FL on dose response curve for inhibition of FLT3 autophosphorylation” value in experiment [1] is recorded as “upward shift in the dose response curve”. In experiment [3], the “trough levels in vivo sufficient to induce FLT3 inhibition to 15% of baseline” value was 5 µM.

Consider `CNC(=O)c1cc(Oc2ccc(NC(=O)Nc3ccc(Cl)c(C(F)(F)F)c3)cc2)ccn1` [sorafenib, Sorafenib], for which, in experiment [1], the “effect of FL on dose response curve for inhibition of FLT3 autophosphorylation” value is given as “upward shift in the dose response curves” and the “effect of addition of FL on inhibition at the highest doses used” value was “loss of complete inhibition”.

B1: secreted form of FL expressed from a lentiviral vector (coding sequence from pUMVC3-hFLex plasmid) (ligand)
chain: TQDCSFQHSPISSDFAVKIRELSDYLLQDYPVTVASNLQDEELCGGLWRLVLAQRWMERLKTVAGSKMQGLLERVNTEIHFVTKCAFQPPPSCLRFVQTNISRLLQETSEQLVALKPWITRQNFSRCLELQCQPDSSTLPPPWSPRPLEATAPTAP
For the molecule B1, in experiment [4], the FLT3 phosphorylation in FL-/- MEF-ITD cells stably expressing FL, no exogenous FL is above 3 fold. In addition, the FLT3 phosphorylation in FL-/- MEF-TKD cells stably expressing FL, no exogenous FL in experiment [5] is above 3 fold. In experiment [6], this molecule registered an FLT3 phosphorylation in FL-/- MEF-FLT3 cells stably expressing FL, no exogenous FL above 3 fold.

B2: Recombinant human FL (FLT3 ligand), PeproTech (ligand)
chain: TQDCSFQHSPISSDFAVKIRELSDYLLQDYPVTVASNLQDEELCGGLWRLVLAQRWMERLKTVAGSKMQGLLERVNTEIHFVTKCAFQPPPSCLRFVQTNISRLLQETSEQLVALKPWITRQNFSRCLELQCQPDSSTLPPPWSPRPLEATAPTA
In experiment [4], B2 displayed an AKT phosphorylation in BaF3/ITD cells after FL stimulation of 1.3 fold; an FLT3 phosphorylation (anti-FLT3 IP, 4G10 immunoblot, densitometry) in FL-/- MEF-ITD cells, FL 100 ng/mL 15 min above 4 fold; an FLT3 phosphorylation in TF1/ITD cells, exogenous FL 15 min above 2 fold; an STAT5 phosphorylation in TF1/ITD cells after FL stimulation of 1.8 fold. In experiment [4], the apoptotic population (Annexin V/7AAD, FACS) of TF1/ITD cells, 48 h serum-free, with FL worked out at 49.5% and the apoptotic population (Annexin V/7AAD, FACS) of TF1/ITD cells, 48 h serum-free, without FL stood at 61.3%. In experiment [5], this molecule showed an AKT phosphorylation in BaF3/TKD cells after FL stimulation of 2.2 fold; an FLT3 phosphorylation (anti-FLT3 IP, 4G10 immunoblot, densitometry) in FL-/- MEF-TKD cells, FL 100 ng/mL 15 min above 4 fold; an FLT3 phosphorylation in TF1/TKD cells, exogenous FL 15 min above 2 fold; an STAT5 phosphorylation in TF1/TKD cells after FL stimulation of 1.8 fold. For the same molecule, in experiment [5], the apoptotic population (Annexin V/7AAD, FACS) of TF1/TKD cells, 48 h serum-free, with FL is 31.6% and the apoptotic population (Annexin V/7AAD, FACS) of TF1/TKD cells, 48 h serum-free, without FL was determined as 40.2%. The FLT3 phosphorylation (anti-FLT3 IP, 4G10 immunoblot, densitometry) in FL-/- MEF-FLT3 cells, FL 100 ng/mL 15 min in experiment [6] is above 4 fold.
